Experimental data taken from patent US10253076B2, “Peptides and combination of peptides for use in immunotherapy against ovarian cancer and other cancers” (immatics biotechnologies GmbH, priority 2015, dated 2019).

What follows are substances tested against HLA-A*02:01 (Homo sapiens, UniProt P04439, D140Y/D185E/D98H/E176V/E277Q/G131W/G231S/I119V/I121R/I166T/I218V/L300P/L318F/N151K/N90K/P208A/P217A/Q86G/Q94H/R138H/R169H/T345S) (assay: MHC binding assay (UV-ligand exchange, beta2m ELISA, peptide exchange yield)). Conditions: binding of HLA-class I restricted peptides to HLA-A*02:01, ranged by peptide exchange yield (UV-ligand exchange, β2m ELISA).
Summary of the method: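 Peptide–HLA-A*02:01 complexes made by UV-mediated exchange of a photocleavable peptide with the test peptide. Exchange products diluted 100-fold on streptavidin-coated plates, 1 h at 37°C, then HRP anti-β2m 1 h at 37°C; TMB read at 450 nm to give exchange yield.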

Peptide exchange | Substance
″++″ (≥20% = ++) | 228 (AMQEYIAVV; listed as Homo sapiens) [compound 228]
″++″ (≥20% = ++) | 229 (RLPGPLGTV; listed as Homo sapiens) [compound 229]
″+″ (≥10% = +) | 230 (ILVDWLVEV; listed as Homo sapiens) [compound 230]
″++″ (≥20% = ++) | 231 (FLSPQQPPLLL; listed as Homo sapiens) [compound 231]
″++″ (≥20% = ++) | 232 (ALLEAQDVELYL; listed as Homo sapiens) [compound 232]
″++″ (≥20% = ++) | 233 (VLSETLYEL; listed as Homo sapiens) [compound 233]
″++″ (≥20% = ++) | 234 (ALMEDTGRQML; listed as Homo sapiens) [compound 234]
″++++″ (≥75% = ++++) | 235 (YLNDLHEVLL; listed as Homo sapiens) [compound 235]
″+++″ (≥50% = +++) | 236 (GLLEAKVSL; listed as Homo sapiens) [compound 236]
″++++″ (≥75% = ++++) | 237 (ALLEASGTLLL; listed as Homo sapiens) [compound 237]
″+++″ (≥50% = +++) | 238 (YLISFQTHI; listed as Homo sapiens) [compound 238]
″+++″ (≥50% = +++) | 239 (AAFAGKLLSV; listed as Homo sapiens) [compound 239]
″+++″ (≥50% = +++) | 240 (ILLEQAFYL; listed as Homo sapiens) [compound 240]
″+++″ (≥50% = +++) | 241 (SLVEVNPAYSV; listed as Homo sapiens) [compound 241]
″++″ (≥20% = ++) | 242 (AIAYILQGV; listed as Homo sapiens) [compound 242]
″+++″ (≥50% = +++) | 243 (LLLNELPSV; listed as Homo sapiens) [compound 243]
″+++″ (≥50% = +++) | 244 (SLFGGTEITI; listed as Homo sapiens) [compound 244]
″+++″ (≥50% = +++) | 245 (SMIDDLLGV; listed as Homo sapiens) [compound 245]
″+++″ (≥50% = +++) | 246 (LLWEVVSQL; listed as Homo sapiens) [compound 246]
″+++″ (≥50% = +++) | 248 (FLFPNQYVDV; listed as Homo sapiens) [compound 248]
″+++″ (≥50% = +++) | 249 (LLDGFLVNV; listed as Homo sapiens) [compound 249]
″+++″ (≥50% = +++) | 250 (ALSEEGLLVYL; listed as Homo sapiens) [compound 250]
″++″ (≥20% = ++) | 251 (ALYTGFSILV; listed as Homo sapiens) [compound 251]
″+++″ (≥50% = +++) | 252 (LLIGTDVSL; listed as Homo sapiens) [compound 252]
″++″ (≥20% = ++) | 253 (GLDAATATV; listed as Homo sapiens) [compound 253]
″+++″ (≥50% = +++) | 254 (TLLAFIMEL; listed as Homo sapiens) [compound 254]

Peptide exchange | Substance
″+++″ (≥50% = +++) | 255 (VLASYNLTV; listed as Homo sapiens) [compound 255]
″+++″ (≥50% = +++) | 256 (FLPPEHTIVYI; listed as Homo sapiens) [compound 256]
″+++″ (≥50% = +++) | 257 (SIFSAFLSV; listed as Homo sapiens) [compound 257]
″++″ (≥20% = ++) | 258 (ELAERVPAI; listed as Homo sapiens) [compound 258]
″++″ (≥20% = ++) | 261 (YVLEFLEEI; listed as Homo sapiens) [compound 261]
″+++″ (≥50% = +++) | 262 (LLWGDLIWL; listed as Homo sapiens) [compound 262]
″+++″ (≥50% = +++) | 263 (LLVSNLDFGV; listed as Homo sapiens) [compound 263]
″+++″ (≥50% = +++) | 264 (SLQEQLHSV; listed as Homo sapiens) [compound 264]
″++″ (≥20% = ++) | 265 (LLFGGTKTV; listed as Homo sapiens) [compound 265]
″+++″ (≥50% = +++) | 266 (KITDTLIHL; listed as Homo sapiens) [compound 266]
″+++″ (≥50% = +++) | 267 (ALQDFLLSV; listed as Homo sapiens) [compound 267]
″++″ (≥20% = ++) | 269 (RVLEVGALQAV; listed as Homo sapiens) [compound 269]
″++″ (≥20% = ++) | 270 (LLLDEEGTFSL; listed as Homo sapiens) [compound 270]
″+++″ (≥50% = +++) | 271 (LVYPLELYPA; listed as Homo sapiens) [compound 271]
″+++″ (≥50% = +++) | 272 (ALGNTVPAV; listed as Homo sapiens) [compound 272]
″++″ (≥20% = ++) | 273 (NLFQSVREV; listed as Homo sapiens) [compound 273]
″++″ (≥20% = ++) | 274 (SLLFSLFEA; listed as Homo sapiens) [compound 274]
″++″ (≥20% = ++) | 275 (YLVYILNEL; listed as Homo sapiens) [compound 275]
″+++″ (≥50% = +++) | 276 (ALFTFSPLTV; listed as Homo sapiens) [compound 276]
″++″ (≥20% = ++) | 277 (LLPPLESLATV; listed as Homo sapiens) [compound 277]
″++″ (≥20% = ++) | 278 (QLLDVVLTI; listed as Homo sapiens) [compound 278]
″++″ (≥20% = ++) | 279 (ALWGGTQPLL; listed as Homo sapiens) [compound 279]
″+++″ (≥50% = +++) | 280 (VLPDPEVLEAV; listed as Homo sapiens) [compound 280]
″+++″ (≥50% = +++) | 281 (ILRESTEEL; listed as Homo sapiens) [compound 281]
″+++″ (≥50% = +++) | 282 (LLADVVPTT; listed as Homo sapiens) [compound 282]
″+++″ (≥50% = +++) | 284 (ILLSQTTGV; listed as Homo sapiens) [compound 284]

Peptide exchange | Substance
″+++″ (≥50% = +++) | 285 (QLLHVGVTV; listed as Homo sapiens) [compound 285]
″+++″ (≥50% = +++) | 286 (YLFPGIPEL; listed as Homo sapiens) [compound 286]
″+++″ (≥50% = +++) | 287 (FLNEFFLNV; listed as Homo sapiens) [compound 287]
″+++″ (≥50% = +++) | 288 (NLINEINGV; listed as Homo sapiens) [compound 288]
″++++″ (≥75% = ++++) | 289 (VLLEIEDLQV; listed as Homo sapiens) [compound 289]
″+++″ (≥50% = +++) | 295 (VLDRESPNV; listed as Homo sapiens) [compound 295]
″+++″ (≥50% = +++) | 296 (FMEGAIIYV; listed as Homo sapiens) [compound 296]
″+++″ (≥50% = +++) | 297 (VLADIELAQA; listed as Homo sapiens) [compound 297]
″+++″ (≥50% = +++) | 298 (VMITKLVEV; listed as Homo sapiens) [compound 298]
″+++″ (≥50% = +++) | 299 (YLLETSGNL; listed as Homo sapiens) [compound 299]
″+++″ (≥50% = +++) | 300 (ALLGQTFSL; listed as Homo sapiens) [compound 300]
″+++″ (≥50% = +++) | 301 (FLVEDLVDSL; listed as Homo sapiens) [compound 301]
″+++″ (≥50% = +++) | 302 (ALLQEGEVYSA; listed as Homo sapiens) [compound 302]
″++++″ (≥75% = ++++) | 303 (AILPQLFMV; listed as Homo sapiens) [compound 303]
″+++″ (≥50% = +++) | 304 (MTLGQIYYL; listed as Homo sapiens) [compound 304]
″++++″ (≥75% = ++++) | 305 (SIANFSEFYV; listed as Homo sapiens) [compound 305]
″+++″ (≥50% = +++) | 306 (ALVNVQIPL; listed as Homo sapiens) [compound 306]
″+++″ (≥50% = +++) | 307 (ALPVSLPQI; listed as Homo sapiens) [compound 307]
″+++″ (≥50% = +++) | 308 (SQYSGQLHEV; listed as Homo sapiens) [compound 308]
″+++″ (≥50% = +++) | 309 (GLFDGVPTTA; listed as Homo sapiens) [compound 309]
″++++″ (≥75% = ++++) | 310 (FLVDTPLARA; listed as Homo sapiens) [compound 310]
″+++″ (≥50% = +++) | 311 (RLYTGMHTV; listed as Homo sapiens) [compound 311]
″+++″ (≥50% = +++) | 312 (IISDLTIAL; listed as Homo sapiens) [compound 312]
″+++″ (≥50% = +++) | 313 (VLFDDELLMV; listed as Homo sapiens) [compound 313]
″+++″ (≥50% = +++) | 314 (ALIAEGIALV; listed as Homo sapiens) [compound 314]
